Source: publication PMC2908503

Key:
Assay in all cases: NMR titration
MLL CXXC R1150A = MLL CXXC R1150A (human, UniProt Q03164 1147-1203, R1150A)
MLL CXXC L1197A = MLL CXXC L1197A (human, UniProt Q03164 1147-1203, L1197A)
MLL CXXC Q1187A = MLL CXXC Q1187A (human, UniProt Q03164 1147-1203, Q1187A)
MLL CXXC C1188A = MLL CXXC C1188A (human, UniProt Q03164 1147-1203, C1188A)
MLL CXXC domain WT = MLL CXXC domain WT (human, UniProt Q03164 1147-1203)
MLL CXXC M1200A = MLL CXXC M1200A (human, UniProt Q03164 1147-1203, M1200A)
Chain of MLL CXXC M1200A (Q03164 1147-1203 M1200A): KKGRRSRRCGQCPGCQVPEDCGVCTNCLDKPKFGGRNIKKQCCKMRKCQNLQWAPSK

Chain of MLL CXXC L1197A (Q03164 1147-1203 L1197A): as the sequence (Q03164 1147-1203 M1200A) above, with L51A, A54M counted along it
Chain of MLL CXXC R1150A (Q03164 1147-1203 R1150A): as the sequence (Q03164 1147-1203 M1200A) above, with R4A, A54M counted along it
Chain of MLL CXXC C1188A (Q03164 1147-1203 C1188A): as the sequence (Q03164 1147-1203 M1200A) above, with C42A, A54M counted along it
Chain of MLL CXXC domain WT (Q03164 1147-1203): as the sequence (Q03164 1147-1203 M1200A) above, with A54M counted along it
Chain of MLL CXXC Q1187A (Q03164 1147-1203 Q1187A): as the sequence (Q03164 1147-1203 M1200A) above, with Q41A, A54M counted along it

B1: DNApal (dsDNA)
DNA 1: CCCTGCGCAGGG
DNA 2: CCCTGCGCAGGG
- binding signal (MLL CXXC R1150A): 5 fold decrease in binding vs WT
- binding signal (MLL CXXC L1197A): 4 fold decrease in binding vs WT
- binding signal (MLL CXXC Q1187A): 6 fold higher Kd vs WT
- binding result (MLL CXXC C1188A): binds
- Kd (MLL CXXC domain WT): 44 µM
- binding result (MLL CXXC M1200A): binds
